# Test results taken from patent US20230235304.
# Changes are numbered by the printed parent chain.
# How the values were obtained:
# Experiment in all cases: cell_activity
# Conditions in all cases: PAM 5'-GCTG-3'; HEK293T; averaged over AAVS1, VEGFA, EMX1 targets
# [1] = test system: T1, CRISPR nuclease variant I521R I521R (synthetic construct)
# T1 sequence: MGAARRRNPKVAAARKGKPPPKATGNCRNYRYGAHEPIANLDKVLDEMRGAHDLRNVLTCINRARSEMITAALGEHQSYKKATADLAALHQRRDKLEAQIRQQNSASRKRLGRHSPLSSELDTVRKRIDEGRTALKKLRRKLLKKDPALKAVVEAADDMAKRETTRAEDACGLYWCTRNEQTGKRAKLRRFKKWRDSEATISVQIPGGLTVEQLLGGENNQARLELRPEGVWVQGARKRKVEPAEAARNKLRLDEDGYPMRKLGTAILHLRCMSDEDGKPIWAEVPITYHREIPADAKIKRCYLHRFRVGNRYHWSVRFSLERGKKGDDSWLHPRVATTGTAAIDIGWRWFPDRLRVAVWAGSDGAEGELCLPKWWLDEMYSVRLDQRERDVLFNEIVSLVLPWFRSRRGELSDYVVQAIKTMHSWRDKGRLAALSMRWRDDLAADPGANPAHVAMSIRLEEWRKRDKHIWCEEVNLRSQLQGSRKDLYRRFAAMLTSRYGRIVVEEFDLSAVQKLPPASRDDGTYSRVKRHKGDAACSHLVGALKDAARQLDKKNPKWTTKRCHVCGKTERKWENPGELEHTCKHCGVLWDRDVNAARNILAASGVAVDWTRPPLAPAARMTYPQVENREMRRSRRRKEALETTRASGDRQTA
# [2] = test system: T2, CRISPR nuclease variant K136G,N220R,M380R K136G,N220R,M380R (synthetic construct)
# T2 sequence: T1 sequence with K136G, N220R, M380R, R521I
# [3] = test system: T3, CRISPR nuclease variant D535G D535G (synthetic construct)
# T3 sequence: T1 sequence with R521I, D535G
# [4] = test system: T4, CRISPR nuclease variant D535G,L516R,I521R D535G,L516R,I521R (synthetic construct)
# T4 sequence: T1 sequence with L516R, D535G
sequence,measurement,setting,value
GGUCCCAUCGGAACGGGUUGUGGUUCCGACGGAGGGAUACAUUGGUGGGG / GGAGGGATACATTGGTGGGG / CCCCACCAATGTATCCCTCC [AAVS1 crRNA (Table 5) ; AAVS1 target (Table 5)],binding signal (fold indels vs WT),[1],3.57
same,binding signal (fold indels vs WT),[2],4.54
same,binding signal (fold indels vs WT),[3],3.57
same,binding signal (fold indels vs WT),[4],3.59
